Results on eleven variants are retold here after IntAct's records for PubMed 31515488.

B1: G1/S-specific cyclin-D3 (Homo sapiens), P30281 (parent)
chain: MELLCCEGTRHAPRAGPDPRLLGDQRVLQSLLRLEERYVPRASYFQCVQREIKPHMRKMLAYWMLEVCEEQRCEEEVFPLAMNYLDRYLSCVPTRKAQLQLLGAVCMLLASKLRETTPLTIEKLCIYTDHAVSPRQLRDWEVLVLGKLKWDLAAVIAHDFLAFILHRLSLPRDRQALVKKHAQTFLALCATDYTFAMYPPSMIATGSIGAAVQGLGACSMSGDELTELLAGITGTEVDCLRACQEQIEAALRESLREASQTSSSPAPKAPRGSSSQGPSQTSTPTDVTAIHL
partner: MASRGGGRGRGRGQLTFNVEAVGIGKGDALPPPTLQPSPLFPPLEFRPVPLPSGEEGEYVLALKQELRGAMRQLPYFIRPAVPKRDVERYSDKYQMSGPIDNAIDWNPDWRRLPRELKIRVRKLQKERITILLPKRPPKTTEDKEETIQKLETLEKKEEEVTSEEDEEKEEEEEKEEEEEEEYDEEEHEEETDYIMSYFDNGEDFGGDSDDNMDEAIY
B2: 5-phosphohydroxy-L-lysine phospho-lyase (Homo sapiens), Q8IUZ5 (parent)
chain: MAADQRPKADTLALRQRLISSSCRLFFPEDPVKIVRAQGQYMYDEQGAEYIDCISNVAHVGHCHPLVVQAAHEQNQVLNTNSRYLHDNIVDYAQRLSETLPEQLCVFYFLNSGSEANDLALRLARHYTGHQDVVVLDHAYHGHLSSLIDISPYKFRNLDGQKEWVHVAPLPDTYRGPYREDHPNPAMAYANEVKRVVSSAQEKGRKIAAFFAESLPSVGGQIIPPAGYFSQVAEHIRKAGGVFVADEIQVGFGRVGKHFWAFQLQGKDFVPDIVTMGKSIGNGHPVACVAATQPVARAFEATGVEYFNTFGGSPVSCAVGLAVLNVLEKEQLQDHATSVGSFLMQLLGQQKIKHPIVGDVRGVGLFIGVDLIKDEATRTPATEEAAYLVSRLKENYVLLSTDGPGRNILKFKPPMCFSLDNARQVVAKLDAILTDMEEKVRSCETLRLQP
partner: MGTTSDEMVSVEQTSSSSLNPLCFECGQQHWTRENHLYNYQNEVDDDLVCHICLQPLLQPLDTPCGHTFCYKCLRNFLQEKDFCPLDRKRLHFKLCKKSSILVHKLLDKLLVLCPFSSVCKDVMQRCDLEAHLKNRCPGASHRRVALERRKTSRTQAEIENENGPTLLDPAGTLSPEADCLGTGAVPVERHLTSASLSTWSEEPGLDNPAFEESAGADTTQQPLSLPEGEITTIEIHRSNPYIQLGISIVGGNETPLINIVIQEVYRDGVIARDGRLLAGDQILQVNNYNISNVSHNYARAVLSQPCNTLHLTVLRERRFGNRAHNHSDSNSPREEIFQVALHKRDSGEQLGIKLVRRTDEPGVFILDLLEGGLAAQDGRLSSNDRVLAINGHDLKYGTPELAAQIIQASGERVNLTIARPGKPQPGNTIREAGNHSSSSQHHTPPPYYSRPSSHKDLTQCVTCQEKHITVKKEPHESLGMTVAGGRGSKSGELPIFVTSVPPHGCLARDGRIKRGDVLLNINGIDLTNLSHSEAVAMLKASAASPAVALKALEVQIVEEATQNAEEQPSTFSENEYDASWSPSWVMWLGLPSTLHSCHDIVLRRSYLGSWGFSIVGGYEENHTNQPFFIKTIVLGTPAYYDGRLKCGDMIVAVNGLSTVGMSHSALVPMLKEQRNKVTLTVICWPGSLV
B3: Zinc finger and BTB domain-containing protein 43 (Homo sapiens), O43298 (parent)
chain: MEPGTNSFRVEFPDFSSTILQKLNQQRQQGQLCDVSIVVQGHIFRAHKAVLAASSPYFCDQVLLKNSRRIVLPDVMNPRVFENILLSSYTGRLVMPAPEIVSYLTAASFLQMWHVVDKCTEVLEGNPTVLCQKLNHGSDHQSPSSSSYNGLVESFELGSGGHTDFPKAQELRDGENEEESTKDELSSQLTEHEYLPSNSSTEHDRLSTEMASQDGEEGASDSAEFHYTRPMYSKPSIMAHKRWIHVKPERLEQACEGMDVHATYDEHQVTESINTVQTEHTVQPSGVEEDFHIGEKKVEAEFDEQADESNYDEQVDFYGSSMEEFSGERSDGNLIGHRQEAALAAGYSENIEMVTGIKEEASHLGFSATDKLYPCQCGKSFTHKSQRDRHMSMHLGLRPYGCGVCGKKFKMKHHLVGHMKIHTGIKPYECNICAKRFMWRDSFHRHVTSCTKSYEAAKAEQNTTEAN
partner: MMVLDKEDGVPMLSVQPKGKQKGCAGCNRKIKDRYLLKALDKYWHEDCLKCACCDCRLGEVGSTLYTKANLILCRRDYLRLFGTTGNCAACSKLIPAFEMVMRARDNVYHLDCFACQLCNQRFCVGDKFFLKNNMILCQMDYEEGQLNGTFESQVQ
B4: Keratin, type I cytoskeletal 13 (Homo sapiens), P13646 (parent)
chain: MSLRLQSSSASYGGGFGGGSCQLGGGRGVSTCSTRFVSGGSAGGYGGGVSCGFGGGAGSGFGGGYGGGLGGGYGGGLGGGFGGGFAGGFVDFGACDGGLLTGNEKITMQNLNDRLASYLEKVRALEEANADLEVKIRDWHLKQSPASPERDYSPYYKTIEELRDKILTATIENNRVILEIDNARLAADDFRLKYENELALRQSVEADINGLRRVLDELTLSKTDLEMQIESLNEELAYMKKNHEEEMKEFSNQVVGQVNVEMDATPGIDLTRVLAEMREQYEAMAERNRRDAEEWFHTKSAELNKEVSTNTAMIQTSKTEITELRRTLQGLEIELQSQLSMKAGLENTVAETECRYALQLQQIQGLISSIEAQLSELRSEMECQNQEYKMLLDIKTRLEQEIATYRSLLEGQDAKMIGFPSSAGSVSPRSTSVTTTSSASVTTTSNASGRRTSDVRRP
partner: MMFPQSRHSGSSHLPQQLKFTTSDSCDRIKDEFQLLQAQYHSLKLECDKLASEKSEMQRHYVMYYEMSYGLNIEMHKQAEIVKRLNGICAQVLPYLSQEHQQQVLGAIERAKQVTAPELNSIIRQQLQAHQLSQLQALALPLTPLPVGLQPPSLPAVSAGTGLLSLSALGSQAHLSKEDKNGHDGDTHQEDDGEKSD
B5: Kinetochore protein NDC80 homolog (Homo sapiens), O14777 (parent)
chain: MKRSSVSSGGAGRLSMQELRSQDVNKQGLYTPQTKEKPTFGKLSINKPTSERKVSLFGKRTSGHGSRNSQLGIFSSSEKIKDPRPLNDKAFIQQCIRQLCEFLTENGYAHNVSMKSLQAPSVKDFLKIFTFLYGFLCPSYELPDTKFEEEVPRIFKDLGYPFALSKSSMYTVGAPHTWPHIVAALVWLIDCIKIHTAMKESSPLFDDGQPWGEETEDGIMHNKLFLDYTIKCYESFMSGADSFDEMNAELQSKLKDLFNVDAFKLESLEAKNRALNEQIARLEQEREKEPNRLESLRKLKASLQGDVQKYQAYMSNLESHSAILDQKLNGLNEEIARVELECETIKQENTRLQNIIDNQKYSVADIERINHERNELQQTINKLTKDLEAEQQKLWNEELKYARGKEAIETQLAEYHKLARKLKLIPKGAENSKGYDFEIKFNPEAGANCLVKYRAQVYVPLKELLNETEEEINKALNKKMGLEDTLEQLNAMITESKRSVRTLKEEVQKLDDLYQQKIKEAEEEDEKCASELESLEKHKHLLESTVNQGLSEAMNELDAVQREYQLVVQTTTEERRKVGNNLQRLLEMVATHVGSVEKHLEEQIAKVDREYEECMSEDLSENIKEIRDKYEKKATLIKSSEE
partner: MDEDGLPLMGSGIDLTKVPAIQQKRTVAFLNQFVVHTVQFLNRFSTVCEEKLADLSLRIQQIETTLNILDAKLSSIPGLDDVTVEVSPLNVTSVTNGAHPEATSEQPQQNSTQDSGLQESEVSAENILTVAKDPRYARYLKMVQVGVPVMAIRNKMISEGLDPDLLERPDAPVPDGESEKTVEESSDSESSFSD
B6: Tuftelin-interacting protein 11 (Homo sapiens), Q9UBB9 (parent)
chain: MSLSHLYRDGEGRIDDDDDERENFEITDWDLQNEFNPNRQRHWQTKEEATYGVWAERDSDDERPSFGGKRARDYSAPVNFISAGLKKGAAEEAELEDSDDEEKPVKQDDFPKDFGPRKLKTGGNFKPSQKGFAGGTKSFMDFGSWERHTKGIGQKLLQKMGYVPGRGLGKNAQGIINPIEAKQRKGKGAVGAYGSERTTQSMQDFPVVDSEEEAEEEFQKELSQWRKDPSGSKKKPKYSYKTVEELKAKGRISKKLTAPQKELSQVKVIDMTGREQKVYYSYSQISHKHNVPDDGLPLQSQQLPQSGKEAKAPGFALPELEHNLQLLIDLTEQEIIQNDRQLQYERDMVVNLFHELEKMTEVLDHEERVISNLSKVLEMVEECERRMQPDCSNPLTLDECARIFETLQDKYYEEYRMSDRVDLAVAIVYPLMKEYFKEWDPLKDCTYGTEIISKWKSLLENDQLLSHGGQDLSADAFHRLIWEVWMPFVRNIVTQWQPRNCDPMVDFLDSWVHIIPVWILDNILDQLIFPKLQKEVENWNPLTDTVPIHSWIHPWLPLMQARLEPLYSPIRSKLSSALQKWHPSDSSAKLILQPWKDVFTPGSWEAFMVKNIVPKLGMCLGELVINPHQQHMDAFYWVIDWEGMISVSSLVGLLEKHFFPKWLQVLCSWLSNSPNYEEITKWYLGWKSMFSDQVLAHPSVKDKFNEALDIMNRAVSSNVGAYMQPGARENIAYLTHTERRKDFQYEAMQERREAENMAQRGIGVAASSVPMNFKDLIETKAEEHNIVFMPVIGKRHEGKQLYTFGRIVIYIDRGVVFVQGEKTWVPTSLQSLIDMAK
partner: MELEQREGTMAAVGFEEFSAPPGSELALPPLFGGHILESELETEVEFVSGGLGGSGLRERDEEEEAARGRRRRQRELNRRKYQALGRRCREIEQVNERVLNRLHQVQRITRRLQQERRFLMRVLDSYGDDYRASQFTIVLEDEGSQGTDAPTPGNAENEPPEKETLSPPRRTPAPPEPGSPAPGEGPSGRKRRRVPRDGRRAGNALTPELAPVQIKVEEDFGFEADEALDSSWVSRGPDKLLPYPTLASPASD
B7: Transmembrane 4 L6 family member 4 (Homo sapiens), P48230 (parent)
chain: MCTGGCARCLGGTLIPLAFFGFLANILLFFPGGKVIDDNDHLSQEIWFFGGILGSGVLMIFPALVFLGLKNNDCCGCCGNEGCGKRFAMFTSTIFAVVGFLGAGYSFIISAISINKGPKCLMANSTWGYPFHDGDYLNDEALWNKCREPLNVVPWNLTLFSILLVVGGIQMVLCAIQVVNGLLGTLCGDCQCCGCCGGDGPV
partner: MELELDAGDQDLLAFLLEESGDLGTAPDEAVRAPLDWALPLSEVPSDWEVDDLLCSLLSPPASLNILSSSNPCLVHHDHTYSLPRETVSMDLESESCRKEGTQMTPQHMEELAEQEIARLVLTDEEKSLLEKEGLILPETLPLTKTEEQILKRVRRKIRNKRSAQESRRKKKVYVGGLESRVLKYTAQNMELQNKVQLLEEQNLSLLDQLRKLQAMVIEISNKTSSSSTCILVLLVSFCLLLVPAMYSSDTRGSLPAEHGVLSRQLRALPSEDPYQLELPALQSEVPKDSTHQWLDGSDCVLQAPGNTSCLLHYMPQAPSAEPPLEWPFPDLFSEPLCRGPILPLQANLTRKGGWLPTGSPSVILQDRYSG
B8: Rhophilin-1 (Homo sapiens), Q8TCX5 (parent)
chain: MILEERPDGAGAGEESPRLQGCDSLTQIQCGQLQSRRAQIHQQIDKELQMRTGAENLYRATSNNRVRETVALELSYVNSNLQLLKEELEELSGGVDPGRHGSEAVTVPMIPLGLKETKELDWSTPLKELISVHFGEDGASYEAEIRELEALRQAMRTPSRNESGLELLTAYYNQLCFLDARFLTPARSLGLFFHWYDSLTGVPAQQRALAFEKGSVLFNIGALHTQIGARQDRSCTEGARRAMEAFQRAAGAFSLLRENFSHAPSPDMSAASLCALEQLMMAQAQECVFEGLSPPASMAPQDCLAQLRLAQEAAQVAAEYRLVHRTMAQPPVHDYVPVSWTALVHVKAEYFRSLAHYHVAMALCDGSPATEGELPTHEQVFLQPPTSSKPRGPVLPQELEERRQLGKAHLKRAILGQEEALRLHALCRVLREVDLLRAVISQTLQRSLAKYAELDREDDFCEAAEAPDIQPKTHQKPEARMPRLSQGKGPDIFHRLGPLSVFSAKNRWRLVGPVHLTRGEGGFGLTLRGDSPVLIAAVIPGSQAAAAGLKEGDYIVSVNGQPCRWWRHAEVVTELKAAGEAGASLQVVSLLPSSRLPSLGDRRPVLLGPRGLLRSQREHGCKTPASTWASPRPLLNWSRKAQQGKTGGCPQPCAPVKPAPPSSLKHPGWP

In the first assay the parent is B1. The conditions noted are these: with rpc7l_human POLR3GL.
For the variant E253D, the “effect of a mutation on the interaction” value is “with no effect”.

Variants of B2 are the subject of a further assay. As to conditions: with lnx2_human LNX2, Q8N448.
Consider H126R, for which the “effect of a mutation on the interaction” value is listed as “with no effect”.

The variants in a further assay derive from B3. As to conditions: with rbtn1_human LMO1, P25800.
On to L151V, for which the “effect of a mutation on the interaction” value was “disrupting interaction strength”.

Variants of B4 are the subject of a further assay. The conditions noted are these: with tle5_human TLE5, Q08117.
For R355H, the “effect of a mutation on the interaction” value was “with no effect”.

The variants in the next assay derive from B5. The conditions noted are these: with wasc3_human WASHC3, Q9Y3C0.
A605P: the “effect of a mutation on the interaction” value is given as “with no effect”.
The same measure, in the same setting: under S55P stands “with no effect”; under E348D, “with no effect”.

The next assay covers variants of B6. As to conditions: with tfpt_human TFPT.
As to S688L, the “effect of a mutation on the interaction” value is “with no effect”.
The same measure, in the same setting: for R8Q the value was “with no effect”.

The next assay covers variants of B7. As to conditions: with creb3_human CREB3, O43889.
As for A63V, the “effect of a mutation on the interaction” value was “with no effect”.

Variants of B8 are the subject of another assay. As to conditions: with mtus2_human MTUS2, Q5JR59.
Sequence of mtus2_human MTUS2, Q5JR59 (Q5JR59 whole entry): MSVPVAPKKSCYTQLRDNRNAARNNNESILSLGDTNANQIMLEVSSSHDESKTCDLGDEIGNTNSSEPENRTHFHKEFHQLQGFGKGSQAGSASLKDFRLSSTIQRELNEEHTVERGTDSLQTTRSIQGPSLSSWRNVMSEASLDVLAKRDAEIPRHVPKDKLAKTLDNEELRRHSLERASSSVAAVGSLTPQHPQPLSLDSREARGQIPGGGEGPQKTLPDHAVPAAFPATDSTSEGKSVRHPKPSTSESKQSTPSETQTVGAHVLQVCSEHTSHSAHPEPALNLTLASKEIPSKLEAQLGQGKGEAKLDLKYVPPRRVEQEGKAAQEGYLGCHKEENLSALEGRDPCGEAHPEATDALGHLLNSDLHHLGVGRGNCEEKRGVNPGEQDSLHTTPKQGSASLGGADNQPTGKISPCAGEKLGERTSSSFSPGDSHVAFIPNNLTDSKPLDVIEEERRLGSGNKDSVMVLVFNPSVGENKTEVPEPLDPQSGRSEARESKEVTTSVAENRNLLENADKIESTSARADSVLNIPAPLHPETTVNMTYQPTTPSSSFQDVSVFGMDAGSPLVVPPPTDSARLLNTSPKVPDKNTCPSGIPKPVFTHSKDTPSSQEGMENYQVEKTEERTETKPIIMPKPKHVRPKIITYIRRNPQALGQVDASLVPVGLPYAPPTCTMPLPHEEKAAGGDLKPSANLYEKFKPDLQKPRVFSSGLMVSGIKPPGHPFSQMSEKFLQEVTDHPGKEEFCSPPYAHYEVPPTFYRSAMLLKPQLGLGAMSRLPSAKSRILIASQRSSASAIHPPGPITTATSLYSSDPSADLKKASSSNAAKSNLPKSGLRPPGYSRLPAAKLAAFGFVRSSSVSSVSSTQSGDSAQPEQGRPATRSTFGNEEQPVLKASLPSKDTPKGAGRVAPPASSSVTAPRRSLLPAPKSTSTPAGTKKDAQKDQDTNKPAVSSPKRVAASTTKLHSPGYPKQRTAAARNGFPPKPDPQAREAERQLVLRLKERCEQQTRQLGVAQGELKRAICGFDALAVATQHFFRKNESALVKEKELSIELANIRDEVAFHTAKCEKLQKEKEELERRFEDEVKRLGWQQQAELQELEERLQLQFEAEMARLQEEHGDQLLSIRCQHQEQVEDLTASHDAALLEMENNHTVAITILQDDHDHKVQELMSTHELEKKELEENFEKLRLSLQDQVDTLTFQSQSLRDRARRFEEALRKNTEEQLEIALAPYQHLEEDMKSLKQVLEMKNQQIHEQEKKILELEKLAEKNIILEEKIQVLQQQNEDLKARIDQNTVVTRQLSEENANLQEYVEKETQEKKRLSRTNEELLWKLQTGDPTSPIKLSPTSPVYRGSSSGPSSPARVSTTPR
Consider A536T, for which the “effect of a mutation on the interaction” value is given as “with no effect”.
